Data as given in patent US20260265393A1 (SHANGHAI CELGEN BIO PHARMACEUTICAL, published 2026).
Where “and” joins values, the source holds several entries; their conditions need not be identical. Identical values can stand only once. Like-named read-outs stand apart in the source and are kept apart here.

Experiments:
[1] = molecular target: T1, mouse CD27 (mouse, UniProt P41272 24-182, limits assumed); test: hybridoma screening; format not described
T1 sequence (looked up): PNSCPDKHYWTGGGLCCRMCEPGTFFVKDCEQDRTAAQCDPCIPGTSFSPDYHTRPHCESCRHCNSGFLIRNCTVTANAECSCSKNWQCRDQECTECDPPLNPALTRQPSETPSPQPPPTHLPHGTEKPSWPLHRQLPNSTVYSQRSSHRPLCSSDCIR

[2] = molecular target: T2, antigen CD27 (soluble, as used in the BLI and SPR experiments) (UniProt P26842 21-192, limits assumed); test: BLI, antibody captured on AHC probe, CD27 in solution
T2 sequence (looked up): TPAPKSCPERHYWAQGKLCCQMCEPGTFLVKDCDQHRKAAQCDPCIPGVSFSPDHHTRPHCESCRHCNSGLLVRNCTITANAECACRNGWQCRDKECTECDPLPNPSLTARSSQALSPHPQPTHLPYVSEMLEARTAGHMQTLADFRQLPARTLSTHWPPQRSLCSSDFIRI

[3] = molecular target: T3, CD27-mFc (Kangdai) (human, UniProt P26842 21-192, limits assumed); test: ELISA on coated CD27-mFc
T3 construct: Bought reagent; also called antigen CD27-mFc; solid-phase human CD27; not shown: mouse Fc (mFc)
T3 sequence (looked up): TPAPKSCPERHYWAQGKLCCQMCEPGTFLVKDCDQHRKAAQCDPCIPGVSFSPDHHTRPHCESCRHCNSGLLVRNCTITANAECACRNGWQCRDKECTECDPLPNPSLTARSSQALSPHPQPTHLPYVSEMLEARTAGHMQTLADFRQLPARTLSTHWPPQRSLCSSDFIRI

[4] = molecular target: T4, human CD27 (transmembrane protein) on the cell membrane (human, UniProt P26842 20-260); test: flow cytometry on CHO cells expressing human CD27
T4 construct: whole, on cells; One molecule is used for CD27 on CHO-CD27 cells, on human PBMC T and B cells and on Jurkat reporter cells; also called CHO-CD27
T4 sequence (looked up): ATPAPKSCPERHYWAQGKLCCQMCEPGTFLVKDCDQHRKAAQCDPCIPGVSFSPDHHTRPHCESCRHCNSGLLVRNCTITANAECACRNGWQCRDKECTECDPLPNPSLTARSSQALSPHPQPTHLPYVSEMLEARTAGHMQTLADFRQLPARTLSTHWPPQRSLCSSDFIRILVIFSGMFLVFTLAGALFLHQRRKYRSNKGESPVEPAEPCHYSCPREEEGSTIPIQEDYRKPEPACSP

[5] = molecular target: T4, human CD27 (transmembrane protein) on …; test: flow cytometry on CHO cells expressing human CD27; remark: listed apart in the source
[6] = molecular target: T3, CD27-mFc (Kangdai); test: ELISA on coated CD27-mFc; remark: listed apart in the source
[7] = molecular target: T2, antigen CD27 (soluble, as used in the …); test: SPR, Biacore T200, CM5 chip
[8] = molecular target: T3, CD27-mFc (Kangdai); test: competition ELISA: CD70 coated, CD27-mFc plus antibody dilutions; competitor CD70
[9] = molecular target: T3, CD27-mFc (Kangdai); test: ELISA on coated CD27-mFc (1 ug/mL), AP anti-human Fc detection, absorption at 405/490 nm (Example 15.2)
[10] = molecular target: T3, CD27-mFc (Kangdai); test: competition ELISA: CD70 coated, CD27-mFc plus antibody dilutions; competitor CD70; remark: listed apart in the source
[11] = molecular target: T5, human CD32a on Jurkat cells (Jurkat-CD32a) (human, UniProt P12318 34-317); test: flow cytometry on Jurkat-CD32a cells, FITC anti-human Fc detection (Example 16)
T5 construct: whole, on cells; also called membrane CD32a
T5 sequence (looked up): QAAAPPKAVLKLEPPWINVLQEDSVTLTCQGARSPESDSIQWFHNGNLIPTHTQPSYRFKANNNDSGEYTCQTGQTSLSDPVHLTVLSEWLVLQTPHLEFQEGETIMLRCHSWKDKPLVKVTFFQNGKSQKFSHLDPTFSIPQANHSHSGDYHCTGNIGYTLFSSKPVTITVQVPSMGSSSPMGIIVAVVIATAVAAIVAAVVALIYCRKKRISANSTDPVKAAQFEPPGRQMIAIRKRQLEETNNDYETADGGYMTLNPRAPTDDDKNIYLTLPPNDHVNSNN

[12] = molecular target: T3, CD27-mFc (Kangdai); test: ELISA on coated CD27-mFc; remark: listed apart in the source
[13] = molecular target: T6, human CD64 on CHO-K cells (CHO-CD64) (human, UniProt P12314 16-374); test: flow cytometry on CHO-CD64 cells, FITC anti-human Fc detection (Example 16)
T6 construct: whole, on cells; also called membrane CD64

[14] = molecular target: T3, CD27-mFc (Kangdai); test: competition ELISA: coated CD70 (1 ug/mL), CD27-mFc plus antibody dilution, HRP anti-mouse Fc detection, absorption at 450/655 nm (Example 15.3); blocked ligand CD70

T6 sequence (P12314 16-374): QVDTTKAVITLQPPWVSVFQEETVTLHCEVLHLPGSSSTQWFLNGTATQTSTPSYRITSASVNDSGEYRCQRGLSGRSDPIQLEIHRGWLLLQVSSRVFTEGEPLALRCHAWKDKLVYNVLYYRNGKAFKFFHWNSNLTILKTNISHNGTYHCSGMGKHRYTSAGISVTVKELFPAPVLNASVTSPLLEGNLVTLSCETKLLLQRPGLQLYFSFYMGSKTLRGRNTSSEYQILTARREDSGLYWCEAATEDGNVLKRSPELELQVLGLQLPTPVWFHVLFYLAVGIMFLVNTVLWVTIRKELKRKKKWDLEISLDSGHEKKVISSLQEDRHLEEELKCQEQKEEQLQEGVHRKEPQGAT

B1: 13B3 anti-human CD27 mouse monoclonal antibody (hybridoma clone) (antibody, V domains shown)
VH: QVQLQQSGPEQVKPGASVKISCKTSGYAFSQSWMNWVKQRPGQGLEWIGRIYPGDGDTNYNGIFKGKATLTADKSSSTAYMQLSSLTSLDSAVYFCASMIRTTYVMDHWGQGTSVTVTS
VL: DIVLTQSPATLSVTPGDSVSLSCRASQSVSNSLHWYQQKSHESPRLLIMYTSQSISGIPSRFSGSGSGTDFTLSINSVETEDFGMYFCQQSNSWPLTFGAGTKLELK
notes: also called 16B1-1-1
- binding result [1]: no binding

B2: 16B1 anti-human CD27 mouse monoclonal antibody (hybridoma clone) (antibody, V domains shown)
VH: QVQLQQSGPEQVKPGASVKISCKTSGYAFSQSWMNWVKQRPGQGLEWIGRIYPGDGDTNYNGIFKGKATLTADKSSSTAYMQLSSLTSLDSAVYFCASMIRTTYVMDHWGQGTSVTVTS
VL: DIVLTQSPATLSVTPGDSVSLSCRASQSVSNSLHWYQQKSHESPRLLIMYTSQSISGIPSRFSGSGSGTDFTLSINSVETEDFGMYFCQQSNSWPLTFGAGTKLELK
notes: Tested as hybridoma supernatant; also called 16B1-1-1
- binding result [1]: no binding

B3: 17H8-hFc human-mouse chimeric CD27 monoclonal antibody (antibody, V domains shown)
VH: EVKLEESGGGLVQPGGSMKLSCVASGFTFSNYWMNWVRQSPEKGLEWVAEIRLKSNNYATYYAESVKGRFTISRDDSKSSVYLQMNSLRGEDTGIYYCTLYDSSYYYAMDYWGQGTSVTVSS
VL: DVVLTQTPLSLPVNIGDQASISCKSTQSLLHSDGFTYLDWYLQKPGQSPQLLIYLVSNRFLGVPDRFSGSGSRTDFTLKISRVEAEDLGVYYCFQSNYLPLTFGGGTKLEI
notes: Mouse 17H8 variable regions on human constant regions
- Kd [2]: 1.3 nM
- koff [2]: 0.00016 s⁻¹
- kon [2]: 123000 M⁻¹ s⁻¹
- EC50 [3]: 0.0754 µg/mL
- EC50 [4]: ~90.6 µg/mL

B4: 17H8 anti-human CD27 mouse monoclonal antibody (hybridoma clone) (antibody, V domains shown)
VH: EVKLEESGGGLVQPGGSMKLSCVASGFTFSNYWMNWVRQSPEKGLEWVAEIRLKSNNYATYYAESVKGRFTISRDDSKSSVYLQMNSLRGEDTGIYYCTLYDSSYYYAMDYWGQGTSVTVSS
VL: DVVLTQTPLSLPVNIGDQASISCKSTQSLLHSDGFTYLDWYLQKPGQSPQLLIYLVSNRFLGVPDRFSGSGSRTDFTLKISRVEAEDLGVYYCFQSNYLPLTFGGGTKLEI
notes: also called 17H8-1-1
- binding result [1]: no binding

B5: 13B3-huH2L3 (P33430) humanized CD27 monoclonal antibody (antibody, human IgG1)
heavy: not shown
VL: DIVLTQSPATLSVSPGERVTLSCRASQSVSNSLHWYQQKPGQAPRLLIMYTSQSISGIPARFSGSGSGTDFTLTISSVEPEDFAVYYCQQSNSWPLTFGGGTKLELK
notes: also called huVH2 + huVL3
- EC50 [5]: 0.211 µg/mL and 1.41 nM
- EC50 [6]: 0.0418 µg/mL and 0.28 nM
- Kd [7]: 0.391 nM
- koff [7]: 0.000684 s⁻¹
- kon [7]: 1.75e+06 M⁻¹ s⁻¹
- IC50 [8]: 1.95 µg/mL and 13.1 nM

B6: 13B3-huH3L4 (P33434) humanized CD27 monoclonal antibody (antibody, V domains shown)
VH: QVQLVQSGAEVKKPGASVKVSCKTSGYAFSQSWMNWVRQAPGQGLEWIGRIYPGDGDTNYNGIFQGRVTLTADTSISTAYMELSRLRSDDTAVYYCASMIRTTYVMDHWGQGTTVTVSS
VL: EIVLTQSPATLSLSPGERATLSCRASQSVSNSLHWYQQKPGQAPRLLIMYTSQSISGIPARFSGSGSGTDFTLTISSLEPEDFAVYYCQQSNSWPLTFGGGTKLELK
notes: also called huVH3 + huVL4
- EC50 [5]: 0.242 µg/mL and 1.62 nM
- EC50 [6]: 0.0361 µg/mL and 0.242 nM
- IC50 [8]: 1.75 µg/mL and 11.7 nM

B7: 13B3-huH2L3 (LALA) variant antibody (antibody, human IgG1, L234A L235A)
heavy: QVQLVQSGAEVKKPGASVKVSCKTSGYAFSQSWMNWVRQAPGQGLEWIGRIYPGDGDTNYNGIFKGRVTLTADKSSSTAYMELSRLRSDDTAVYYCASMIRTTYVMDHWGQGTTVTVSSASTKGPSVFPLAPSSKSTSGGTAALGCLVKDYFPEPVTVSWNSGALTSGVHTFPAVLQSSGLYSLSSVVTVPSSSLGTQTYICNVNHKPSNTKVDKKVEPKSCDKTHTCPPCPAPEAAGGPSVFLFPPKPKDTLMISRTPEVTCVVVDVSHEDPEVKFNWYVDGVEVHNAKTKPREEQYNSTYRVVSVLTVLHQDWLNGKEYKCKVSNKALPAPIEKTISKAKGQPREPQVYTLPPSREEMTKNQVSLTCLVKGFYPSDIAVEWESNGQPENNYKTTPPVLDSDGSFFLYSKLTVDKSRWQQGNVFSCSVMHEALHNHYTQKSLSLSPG
VL: DIVLTQSPATLSVSPGERVTLSCRASQSVSNSLHWYQQKPGQAPRLLIMYTSQSISGIPARFSGSGSGTDFTLTISSVEPEDFAVYYCQQSNSWPLTFGGGTKLELK
notes: The light chain is that of 13B3-huH2L3 (huVL3)
- EC50 [9]: 0.037 µg/mL
- IC50 [10]: 1.09 µg/mL

B8: 13B3-huH2L4 (LALA) variant antibody (antibody, human IgG1, L234A L235A)
heavy: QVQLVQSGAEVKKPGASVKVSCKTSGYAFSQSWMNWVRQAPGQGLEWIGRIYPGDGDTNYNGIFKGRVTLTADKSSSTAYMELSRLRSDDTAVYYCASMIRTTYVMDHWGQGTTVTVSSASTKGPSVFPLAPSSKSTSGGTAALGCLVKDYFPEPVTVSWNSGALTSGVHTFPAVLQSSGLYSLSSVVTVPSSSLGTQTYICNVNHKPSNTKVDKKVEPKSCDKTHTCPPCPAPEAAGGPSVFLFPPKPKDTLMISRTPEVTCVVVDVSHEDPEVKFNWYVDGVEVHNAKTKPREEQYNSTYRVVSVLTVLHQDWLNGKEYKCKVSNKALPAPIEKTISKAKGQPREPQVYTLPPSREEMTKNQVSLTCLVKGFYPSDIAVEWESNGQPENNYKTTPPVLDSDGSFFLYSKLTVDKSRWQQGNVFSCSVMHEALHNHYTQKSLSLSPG
VL: EIVLTQSPATLSLSPGERATLSCRASQSVSNSLHWYQQKPGQAPRLLIMYTSQSISGIPARFSGSGSGTDFTLTISSLEPEDFAVYYCQQSNSWPLTFGGGTKLELK
notes: The light chain is that of 13B3-huH2L4 (huVL4); also called mutant antibody
- binding result [11]: no binding (tested: 10 µg/mL)
- EC50 [12]: 0.029 µg/mL
- binding result [13]: no binding (tested: 10 µg/mL)
- IC50 [14]: 1.12 µg/mL

B9: 13B3-huH2L4 (P33433) humanized CD27 monoclonal antibody (antibody, human IgG1)
heavy: not shown
VL: EIVLTQSPATLSLSPGERATLSCRASQSVSNSLHWYQQKPGQAPRLLIMYTSQSISGIPARFSGSGSGTDFTLTISSLEPEDFAVYYCQQSNSWPLTFGGGTKLELK
notes: also called huVH2 + huVL4; parent antibody (wild-type)
- EC50 [5]: 0.224 µg/mL and 1.5 nM
- EC50 [12]: 0.029 µg/mL
- EC50 (read off the curve) [13]: ~0.7 µg/mL
- EC50 [6]: 0.0409 µg/mL and 0.274 nM
- IC50 [10]: 1.31 µg/mL
- IC50 [8]: 1.91 µg/mL and 12.8 nM

B10: 13B3-huH4L3 (P33432) humanized CD27 monoclonal antibody (antibody, V domains shown)
VH: QVQLVQSGAEVKKPGASVKVSCKTSGYAFSQSWMNWVRQAPGQGLEWMGRIYPGDGDTNYAQKFQGRVTMTADTSISTAYMELSRLRSDDTAVYYCASMIRTTYVMDHWGQGTTVTVSS
VL: DIVLTQSPATLSVSPGERVTLSCRASQSVSNSLHWYQQKPGQAPRLLIMYTSQSISGIPARFSGSGSGTDFTLTISSVEPEDFAVYYCQQSNSWPLTFGGGTKLELK
- IC50 [8]: 1.91 µg/mL and 12.8 nM

B11: 13B3-huH4L1 (P33425) humanized CD27 monoclonal antibody (antibody, V domains shown)
VH: QVQLVQSGAEVKKPGASVKVSCKTSGYAFSQSWMNWVRQAPGQGLEWMGRIYPGDGDTNYAQKFQGRVTMTADTSISTAYMELSRLRSDDTAVYYCASMIRTTYVMDHWGQGTTVTVSS
VL: EIVLTQSPDFLSVTPKEKVTLTCRASQSVSNSLHWYQQKPDQSPKLLIMYTSQSISGIPSRFSGSGSGTDFTLTINSVEAEDAATYYCQQSNSWPLTFGGGTKLELK
notes: also called huVH4 + huVL1
- EC50 [5]: 0.19 µg/mL and 1.27 nM
- EC50 [6]: 0.0371 µg/mL and 0.249 nM
- Kd [7]: 0.699 nM
- koff [7]: 0.00135 s⁻¹
- kon [7]: 1.93e+06 M⁻¹ s⁻¹

B12: 13B3-huH2L2 (P33426) humanized CD27 monoclonal antibody (antibody, V domains shown)
VH: QVQLVQSGAEVKKPGASVKVSCKTSGYAFSQSWMNWVRQAPGQGLEWIGRIYPGDGDTNYNGIFKGRVTLTADKSSSTAYMELSRLRSDDTAVYYCASMIRTTYVMDHWGQGTTVTVSS
VL: IVLTQSPDFQSVTPKEKVTITCRASQSVSNSLHWYQQKPDQSPKLLIMYTSQSISGVPSRFSGSGSGTDFTLTINSLEAEDAATYYCQQSNSWPLTFGGGTKLELK
notes: also called huVH2 + huVL2
- EC50 [5]: 0.221 µg/mL and 1.48 nM
- EC50 [6]: 0.0486 µg/mL and 0.325 nM
- Kd [7]: 0.643 nM
- koff [7]: 0.00106 s⁻¹
- kon [7]: 1.65e+06 M⁻¹ s⁻¹
- IC50 [8]: 1.92 µg/mL and 12.8 nM
